A short description of data set [1]: Enzyme kinetic studies of CPG2-derived enzymes in detergent soluble cell extracts, MTX as substrate. It counts as biochemical. Particulars: for Catalytic activity (%): specific activity of COS/CPG2* (50 ng CPG2*) assigned as 100%; for Km: substrate MTX, detergent soluble cell extract, read-out: Km (μM MTX). The source says:
Detergent soluble cell extracts, and enzyme kinetic analyses have been described previously (Marais et al (1996) Cancer Res. 56, 4735-4742; Marais et al (1997) Nature Biotech. 15, 1373-1377).

Data set [2] in a line: CPG2 dimer stability by non-reducing SDS-polyacrylamide gel electrophoresis of COS cell extracts. The following applies: sample not heated.
Source text: To test this, CPG2* was transiently expressed in COS cells and the stability of the dimers determined by non-reducing SDS-polyacrylamide gels.
The conditions of data set [3]: previous study, cited from earlier work.
Data set [4] deals with the molecule itself. As to the kind of experiment: non-reducing SDS-PAGE of COS cell extracts (homodimer).
Source text: We first determined why the asparagine to glutamine mutations that blocked glycosylation reduced CPG2s enzyme activity. […] We next tested each position independently.
Data set [5] is described as follows: CPG2 enzyme activity in detergent soluble extracts of stably expressing clones, MTX as substrate. It counts as biochemical. The following applies: for CPG2 activity (U/mg): U/mg detergent soluble protein, clone as in label. The source says: All mammalian cell lines were maintained in Dulbecco's Modified Eagle's Medium supplemented with 10% foetal calf serum (DMEM/FCS). For this study, the human colorectal carcinoma cell line WiDr (Noguchi et al (1979) In Vitro. 15, 401-408, and the human ovarian carcinoma cell lines SK-OV-3 (Hill et al. (1987) 39, 219-225) and A2780 (Louie et al. (1985) Cancer Res. 45, 2110-2115) were separately transfected with the plasmid pMCEFstcpg2(Q)3 (Marais et al (1997) Nature Biotech. 15, 1373-1377) and G418-resistant colonies were selected by limiting dilution. Detergent soluble extracts were incubated with methotrexate, a good carboxypeptidase G2 substrate. Rate of change of absorbance at 320 nm was measured to identify those colonies able to degrade MTX and therefore likely to express stCPG2(Q)3. Expression of stCPG2(Q)3 was confirmed by immunoblotting these detergent soluble extracts using a rabbit polyclonal serum specific for CPG2 (Marais et al (1996) Cancer Res. 56, 4735-4742; Marais et al (1997) Nature Biotech. 15, 1373-1377). Cell lines constitutively expressing β-galactosidase or CPG2* have been described (Marais et al (1996) Cancer Res. 56, 4735-4742; Marais et al (1997) Nature Biotech. 15, 1373-1377).
In order to conduct these studies, we engineered WiDr (human colorectal adenocarcinoma), SK-OV-3 and A2780 (both human ovarian tumour lines) cells for stable expression of stCPG2(Q)3. The presence of stCPG2(Q)3 was verified by immunoprotein blotting (data not shown) and the levels of enzyme activity in these clones were determined using MTX as substrate (Table 2). For each line two or three clones were examined. The SK-OV-3 clones expressed the lowest levels of CPG2 activity (0.016 and 0.023 U/mg protein) followed by the A2780 clones (0.06 and 0.067 U/mg), with WiDr clones expressing the highest level of CPG2 activity (0.177 and 0.226 U/mg) (Table 2).

The values that follow come from patent US20040014187A1, “Bacterial carboxypeptidase cpg2 variants and their use in gene directed enzyme prodrug therapy” (priority 2000, published 2004).

“Also recorded” adds a separate entry of the source. Like-named read-outs stand apart in the source and are kept apart here.

What is called Km is the substrate concentration at which the rate is half of its maximum.

B1: stCPG2(QAQ): surface tethered CPG2, Q222, A264, Q272 (protein)
chain: ALAQKRDNVLFQAATDEQPAVIKTLEKLVNIETGTGDAEGIAAAGNFLEAELKNLGFTVTRSKSAGLVVGDNIVGKIKGRGGKNLLLMSHMDTVYLKGILAKAPFRVEGDKAYGPGIADDKGGNAVILHTLKLLKEYGVRDYGTITVLFNTDEEKGSFGSRDLIQEEAKLADYVLSFEPTSAGDEKLSLGTSGIAYVQVQITGKASHAGAAPELGVNALVEASDLVLRTMNIDDKAKNLRFAWTIAKAGQVSNIIPASATLNADVRYARNEDFDAAMKTLEERAQQKKLPEADVKVIVTRGRPAFNAGEGGKKLVDKAVAYYKEAGGTLGVEERTGGGTDAAYAALSGKPVIESLGLPGFGYHSDKAEYVDISAIPRRLYMAARLIMDLGAGKDLDDKGCPAEQRASPLTSIISAVVGILLVVVLGVVFGILIKRRQQKIRKYT
Turning to B1, in data set [1], the “Catalytic activity (%)” value turned out to be 38% and the Km amounted to 69 µM. Moreover, the dimer stability entry in data set [2] is “did nor form stable dimers”.

B2: stCPG2(QSQ): surface tethered CPG2, Q222, S264, Q272 (protein)
chain: ALAQKRDNVLFQAATDEQPAVIKTLEKLVNIETGTGDAEGIAAAGNFLEAELKNLGFTVTRSKSAGLVVGDNIVGKIKGRGGKNLLLMSHMDTVYLKGILAKAPFRVEGDKAYGPGIADDKGGNAVILHTLKLLKEYGVRDYGTITVLFNTDEEKGSFGSRDLIQEEAKLADYVLSFEPTSAGDEKLSLGTSGIAYVQVQITGKASHAGAAPELGVNALVEASDLVLRTMNIDDKAKNLRFSWTIAKAGQVSNIIPASATLNADVRYARNEDFDAAMKTLEERAQQKKLPEADVKVIVTRGRPAFNAGEGGKKLVDKAVAYYKEAGGTLGVEERTGGGTDAAYAALSGKPVIESLGLPGFGYHSDKAEYVDISAIPRRLYMAARLIMDLGAGKDLDDKGCPAEQRASPLTSIISAVVGILLVVVLGVVFGILIKRRQQKIRKYT
As to B2, in data set [1], the “Catalytic activity (%)” value is 40% and the Km stood at 51 µM. For the same molecule, the dimer stability result in data set [2] is on record as “weak dimers”.

B3: CPG2* (cytosolic carboxypeptidase G2 from Pseudomonas strain RS16) (enzyme)
chain: ALAQKRDNVLFQAATDEQPAVIKTLEKLVNIETGTGDAEGIAAAGNFLEAELKNLGFTVTRSKSAGLVVGDNIVGKIKGRGGKNLLLMSHMDTVYLKGILAKAPFRVEGDKAYGPGIADDKGGNAVILHTLKLLKEYGVRDYGTITVLFNTDEEKGSFGSRDLIQEEAKLADYVLSFEPTSAGDEKLSLGTSGIAYVQVNITGKASHAGAAPELGVNALVEASDLVLRTMNIDDKAKNLRFNWTIAKAGNVSNIIPASATLNADVRYARNEDFDAAMKTLEERAQQKKLPEADVKVIVTRGRPAFNAGEGGKKLVDKAVAYYKEAGGTLGVEERTGGGTDAAYAALSGKPVIESLGLPGFGYHSDKAEYVDISAIPRRLYMAARLIMDLGAGK
notes: Homodimer; also called COS/CPG2*
B3: the figures for the CPG2 enzyme activity in data set [3] (A2780 clone expressing CPG2*), in data set [3] (SK-OV-3 clone expressing CPG2*) and in data set [3] (WiDr clone expressing CPG2*) were 0.964 U/mg, 1.013 U/mg and 0.787 U/mg, respectively. Moreover, in data set [1], the “Catalytic activity (%)” value was determined as 100%. Besides, the Km in data set [1] is 7.2 µM. Besides, the binding result in data set [4] was “binds”. Further, in data set [5] (A2780), the “enzyme activity of CPG2* clone relative to stCPG2(Q)3 clones” value was about 15 times. In addition, the results for the “CPG2 activity (U/mg)” value in data set [5] (listed as S2.34 CPG2*) and in data set [5] (listed as S2.4 CPG2*) were 0.023 U/mg and 0.014 U/mg, respectively.

B4: CPG2*(QSQ) (enzyme)
chain: ALAQKRDNVLFQAATDEQPAVIKTLEKLVNIETGTGDAEGIAAAGNFLEAELKNLGFTVTRSKSAGLVVGDNIVGKIKGRGGKNLLLMSHMDTVYLKGILAKAPFRVEGDKAYGPGIADDKGGNAVILHTLKLLKEYGVRDYGTITVLFNTDEEKGSFGSRDLIQEEAKLADYVLSFEPTSAGDEKLSLGTSGIAYVQVQITGKASHAGAAPELGVNALVEASDLVLRTMNIDDKAKNLRFSWTIAKAGQVSNIIPASATLNADVRYARNEDFDAAMKTLEERAQQKKLPEADVKVIVTRGRPAFNAGEGGKKLVDKAVAYYKEAGGTLGVEERTGGGTDAAYAALSGKPVIESLGLPGFGYHSDKAEYVDISAIPRRLYMAARLIMDLGAGK
notes: also called COS/CPG2* (QSQ)
Take B4: the “catalytic activity compared to CPG2*(Q)3” value in data set [1] (increase relative to CPG2*(Q)3) was “almost twice as active”. Moreover, the “increase in Km (decrease in apparent affinity for MTX) compared to CPG2*(Q)3” value in data set [1] (relative to CPG2*(Q)3) was about 6 fold. Moreover, in data set [1], the “Catalytic activity (%)” value amounted to 58% and the Km came out at 58 µM. Also, in data set [2], the dimer stability entry is on record as “improved; also recorded: restored weak dimer stability”. Further, in data set [4], the binding result is reported as “binds”.

B5: CPG2*(N222L) (enzyme)
chain: ALAQKRDNVLFQAATDEQPAVIKTLEKLVNIETGTGDAEGIAAAGNFLEAELKNLGFTVTRSKSAGLVVGDNIVGKIKGRGGKNLLLMSHMDTVYLKGILAKAPFRVEGDKAYGPGIADDKGGNAVILHTLKLLKEYGVRDYGTITVLFNTDEEKGSFGSRDLIQEEAKLADYVLSFEPTSAGDEKLSLGTSGIAYVQVLITGKASHAGAAPELGVNALVEASDLVLRTMNIDDKAKNLRFNWTIAKAGNVSNIIPASATLNADVRYARNEDFDAAMKTLEERAQQKKLPEADVKVIVTRGRPAFNAGEGGKKLVDKAVAYYKEAGGTLGVEERTGGGTDAAYAALSGKPVIESLGLPGFGYHSDKAEYVDISAIPRRLYMAARLIMDLGAGK
notes: Cytosolic form expressed in COS cells
For B5, the dimer stability entry in data set [2] is “formed stable dimers”. Also, in data set [4], the binding result is recorded as “binds”.
